Measurements as given in the RNAGym collection of RNA variant scans (doi:10.1073/pnas.2313332121).
This sample holds only a part of the variants without activity.

B1: TPR 5TU (parent)
chain: GGAUCUUCUCGAUCUAACAAAAAAGACAAAUCUGCCACAAAGCUUGAGAGCAUCUUCGGAUGCAGAGGCGGCAGCCUUCGGUGGCGCGAUAGCGCCAACGUUCUCAACUAUGACACGCAAAACGCGUGCUCCGUUGAAUGGAGUUUAUCAUG

Variants of: B1
Test: polymerase ribozyme fitness, log enrichment relative to wild type (log ratio); higher = more active; in vitro selection for triplet polymerase activity
How it was run: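 To select mutant libraries of each subunit of a heterodimeric triplet polymerase ribozyme, built by PCR and transcribed, each was annealed with a biotinylated primer, partner subunit and triplets, then incubated frozen at −7 °C. Extended constructs were gel-excised, captured on streptavidin beads and amplified by RT-PCR, in one round carried out in triplicate. Illumina sequencing of input and output libraries kept genotypes with ≥10 input reads and ≥1 read per output. Fitness is the base-2 logarithm of genotype enrichment relative to wild-type enrichment, from inverse-variance-weighted replicate averages.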

Row | Variant | polymerase ribozyme fitness (log ratio)
1 | C87U C116U C118A | -0.495
2 | G88U C105U | -3.83
3 | C85U A120G | -1.65
4 | C87A G117C U146C | ≤ -4.2
5 | C87U C105U A107U | -3.79
6 | G88A U101G U102G A138U U139G | ≤ -4.2
7 | C93A A150C | -3.74
8 | A91G G133A G141U G143U | ≤ -4.2
9 | C85G C114G G141U | -4.17
10 | C87U C93U | -2.9
11 | G92C U101G C131A | -3.96
12 | C85U U101G C125U | -0.351
13 | C85U C96A C116G | -0.604
14 | A89G U139G | -0.875
15 | G92C U135G | -3.12
16 | G92C U135C | -2.88
17 | C85U G143C | -1.66
18 | C85U A113G | -1.86
19 | G86A G141A | -0.545
20 | A89G C95A G136U | -3.75
21 | U90A C99U U111C | -4.13
22 | C85U A98U U139A | ≤ -4.2
23 | U90A C95U | ≤ -4.2
24 | C85G G141A | -2.85

Row | Variant | polymerase ribozyme fitness (log ratio)
25 | A89U C96U C118U A122G U139G | -0.0743
26 | G86A A122U | -1.33
27 | A91C C114U U139C | ≤ -4.2
28 | A91G C118G G143C | ≤ -4.2
29 | C87A A91G C103U U135C | ≤ -4.2
30 | A91C U102G A138C | ≤ -4.2
31 | C87U G141A | -0.85
32 | C87U G141C | -1.72
33 | A91U C96U C103A U109C | ≤ -4.2
34 | C85G G136A | -1.31
35 | C85G G133C U135C | ≤ -4.2
36 | A89C G92U | -1.92
37 | C85G U134A | -3.86
38 | C85U G140U | -2.51
39 | G86U C118U A119G | -4.19
40 | A89U A150C | -3.66
41 | C87G G141U | -3.61
42 | C87U C116A G117C C118G | -1.82
43 | G88A C93A C123U G126U G133U G140U | ≤ -4.2
44 | C85G C129G | -4.11
45 | C85G C125A U144A | -3.57
46 | C87G C93U C99A U134G G141U | ≤ -4.2
47 | G88C G126C | ≤ -4.2
48 | C87A U146G | ≤ -4.2

Row | Variant | polymerase ribozyme fitness (log ratio)
49 | G88U G126A | -2.98
50 | G86U C123G | -1.55
51 | G86U C123A | -1.99
52 | A91U C118G G141C | -3.94
53 | A89U C99G A142U | -2.38
54 | G88U G124A G128U U135C | ≤ -4.2
55 | G88A G92A C132G U148A | ≤ -4.2
56 | A91G U130G A150G | ≤ -4.2
57 | C85G G94A G117U G124U U135G | -3.69
58 | A89G C93A | -3.94
59 | C85U C93U C131A | -2.94
60 | C87A G117C G136U G141U | ≤ -4.2
61 | C87U U127A | -3.2
62 | C85U A89C C93U C149U | -3.26
63 | A89G A110U U151A | -3.58
64 | C87G U90C | -4.07
65 | G86A C105G A138U | ≤ -4.2
66 | G86A C123A U148G | -4.02
67 | C85G G92U A138U U145A | ≤ -4.2
68 | C87A A119U A147C | -4.05
69 | A91U U139A G140C G143C | ≤ -4.2
70 | C87U C123U G126U | 0.848
71 | A89G G92C A97C C114U | -3.82
72 | G86U A115G | -2.39

Row | Variant | polymerase ribozyme fitness (log ratio)
73 | C93A A119G A120U | -2.53
74 | C87G A91C U127G A142U | ≤ -4.2
75 | C93A C118G | -3.44
76 | C93A C118U | -3.29
77 | C85G U102C G141U | -3.43
78 | G92C G141C | -0.623
79 | G86A U104G | -2.29
80 | G92A A98G | -3
81 | C85U C131U G143U | -2.54
82 | C85U U102G | -3.32
83 | C85U G94C G143A | -1.78
84 | A91U U127G | ≤ -4.2
85 | C85U U134C | -1.76
86 | C87U G124A | -0.0826
87 | C87G A113C A138U U146C | ≤ -4.2
88 | A91G G140A | -4.12
89 | C87A U101C | -4
90 | G88A C116U | -4.05
91 | G86C A89U | -2.94
92 | A91C A113G | -4.15
93 | G88U A121C | ≤ -4.2
94 | G88C G117C A138U G143C | ≤ -4.2
95 | G92U A121G G143C U145G | -3.44
96 | C87U C99G | -1.97

Row | Variant | polymerase ribozyme fitness (log ratio)
97 | C85G U139A | -4.19
98 | C87U U144G | -0.986
99 | C85U G94A A121C A138U | -4.08
100 | C93A A137U | ≤ -4.2
101 | A89U G94U | -1.2
102 | C85U A150U G152A | -0.481
103 | C85U C96G U135C | -2.57
104 | C85U C95A G136U A138C | ≤ -4.2
105 | G88U C95G U144C | ≤ -4.2
106 | G92U C103U G136U | -3.43
107 | G86U G124A U148A | -3.78
108 | A89G C95U A142C | -2.81
109 | G88C G141C | -3.84
110 | C85U C95A U127G | -3.88
111 | C85U G94U A97U | -0.116
112 | A91G C114A C116U A137C | -3.79
113 | G86A G100A | -3.89
114 | C85U C95G A119U | -1.89
115 | C87U C131U | 1.46
116 | U90A A107G | ≤ -4.2
117 | C87U C129G | -2.63
118 | C87U A89G C103U A115C C123U G143U | ≤ -4.2
119 | A91C A98G A122U U144C A147U A150C | ≤ -4.2
120 | C87U A122U | -0.5

Row | Variant | polymerase ribozyme fitness (log ratio)
121 | A89G G117U | -0.974
122 | C93A C95A U104A G141C | ≤ -4.2
123 | G86U C118U C125U | -4.01
124 | C93A C132G A138C G140U G141C | ≤ -4.2
125 | C85G G100A | ≤ -4.2
126 | C87G C105A | ≤ -4.2
127 | G88U C95G | -3.65
128 | G86A C103U | -1.01
129 | G86C G126U C131A | ≤ -4.2
130 | G86U A91C C99G U109G | ≤ -4.2
131 | C87U C103G C116U | -1.35
132 | C85U C93U U134G | -4.16
133 | C87U U104G | -0.825
134 | G92C C99A A138C | ≤ -4.2
135 | U90A U130A | ≤ -4.2
136 | G92U A115C | -2.23
137 | C85G G88A | -4.01
138 | C85G G133C | -2.86
139 | G88U C95U A121U A122G G124A | ≤ -4.2
140 | C85U C103G C108U A115U G143A | ≤ -4.2
141 | A91U U134G A137U | ≤ -4.2
142 | C93A A115C | -3.22
143 | C85G C116A | -0.515
144 | G88U A115C A120G | -3.89

Row | Variant | polymerase ribozyme fitness (log ratio)
145 | A91G U144A | -3.08
146 | G92A A97G A122U U148C | -3.63
147 | G86C U151G | ≤ -4.2
148 | C87A A97G A142C | ≤ -4.2
149 | A89C A107C | -4.06
150 | A89C A107U | ≤ -4.2
151 | U90G C116G | -3.78
152 | C85U C149A | ≤ -4.2
153 | C87G C114G A137G | ≤ -4.2
154 | A89C G143A | -0.0918
155 | C85G U130G | ≤ -4.2
156 | A89G U134C | -0.372
157 | A89U A97U U101A A107C A121C G140U U148G | ≤ -4.2
158 | G86U G92C A98G A150U | -2.26
159 | G92A A138C U148C | ≤ -4.2
160 | C85U C99G | -1.07
161 | C85U C99U | -2.35
162 | C87A A89U | ≤ -4.2
163 | A91C A106G | ≤ -4.2
164 | C93A C125A | -1.68
165 | C85G C118U C132U | -3.11
166 | G92A C125A U134G | -3.58
167 | G92C U148G | -3.89
